These results are taken from patent US20230227572A1 (HEFEI TG IMMUNOPHARMA, published 2023).

In assay [1] the target is T1, human PVRIG protein on the cell membrane surface (human, UniProt Q6DKI7 41-326).
T1 construct: Also used here for the natural PVRIG on NKG cells and human lymphocytes; also called 293T-human PVRIG cell line; PVRIG on NKG cell line
T1 sequence: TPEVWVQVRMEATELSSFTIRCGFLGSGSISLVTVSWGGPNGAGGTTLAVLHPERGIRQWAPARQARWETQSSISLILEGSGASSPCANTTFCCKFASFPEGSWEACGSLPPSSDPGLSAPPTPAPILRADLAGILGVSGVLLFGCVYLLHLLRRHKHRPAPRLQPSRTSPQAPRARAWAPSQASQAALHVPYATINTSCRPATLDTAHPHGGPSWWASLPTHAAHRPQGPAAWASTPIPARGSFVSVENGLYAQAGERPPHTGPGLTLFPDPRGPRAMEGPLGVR
Put plainly: flow cytometry on 293T-human PVRIG cells, AF647 goat anti-mouse IgG, percent positive cells. As to the method:
The activity of murine antibodies from different clones in binding to human PVRIG protein on the cell membrane surface was evaluated by flow cytometry. The experimental procedure was as follows:
The 293T-human PVRIG cell line was harvested, washed with 1×PBS and resuspended, the cells were counted. Then […] were placed into each 1.5 ml Ep tube, the respective murine antibody (Antibody 1, Antibody 2, Antibody 3, or Antibody 4) was added at different concentrations, the mixture was incubated at 4° C. for 30 min, then washed with 1×PBS, and centrifuged at 3,500 rpm for 5 min to harvest the cells. The cell pellet was resuspended in 100 μl of 1×PBS, a AF647-labeled goat anti-mouse IgG antibody (available from Biolegend) was added, the mixture was incubated at 4° C. for 30 min in the dark, followed by washing twice with 1×PBS and harvesting the cells by centrifugation at 3,500 rpm for 5 min. The cell pellet was resuspended with 200 μl of 1×PBS and measured using a flow cytometer (BD LSR II).
A general note: A flow cytometer gives signals particle by particle.

In assay [2] the target is T2, recombinant human PVRIG-human IgG1 Fc fusion protein (human).
T2 construct: no linker is told; also called human PVRIG-Fc fusion protein
Put plainly: flow cytometry blocking assay: antibody plus 10 µg/ml Fc fusion protein on 293T-human CD112 cells, AF647 anti-human IgG-Fc; y axis Human PVRIG-Fc fusion protein binding (%); blocked ligand: human CD112 on the cells. The method, then: The activity of murine antibodies from different clones in blocking the binding of the human PVRIG to its ligand CD112 was evaluated by flow cytometry. The experimental procedure was as follows:
The 293T-human CD112 cell line was harvested, and washed resuspended with 1×PBS to count the cells. […] The cell pellet was resuspended in 100 μl of 1×PBS, a AF647-labeled mouse anti-human IgG-Fc antibody (available from Biolegend) was added, the mixture was incubated at 4° C. for 30 min in the dark, followed by washing twice with 1×PBS and harvesting the cells by centrifugation at 3,500 rpm for 5 min. The cell pellet was resuspended with 200 ul of 1×PBS and measured using a flow cytometer (BD LSR II).

The target of assay [3] is T2, recombinant human PVRIG-human IgG1 Fc …. Put plainly: ELISA, plate coated with human PVRIG-human IgG1 Fc at 1.0 µg/ml, HRP goat anti-mouse IgG, OD450. As to the method: The activity of the murine antibodies from different clones in binding to the human PVRIG-Fc fusion protein was evaluated by ELISA. The experimental procedure was as follows:
The recombinant human PVRIG-human IgG1 Fc fusion protein was diluted to 1.0 μg/ml in 1×PBS (phosphate buffer), the dilution was plated onto a 96-well ELISA plate overnight at 4° C. by 100 μl/well, the plate was washed 3 times with PBST (0.05% Tween20-PBS) and blocked with 1% BSA, followed by incubation at 37° C. for 2 h. The plate was washed 3 times with PBST, and murine antibodies (Antibody 1, Antibody 2, Antibody 3, or Antibody 4) diluted in multiple ratios were respectively added to set 8 concentrations, and the mixture was incubated at 37° C. for 1 h using mouse IgG1 (available from Biolegend) as a negative control at 100 μl/well. The plate was washed 3 times with PBST, and 100 μl of horseradish peroxidase (HRP)-labeled goat anti-mouse IgG antibody (available from BOSTER, 1:10,000 dilution) was added to each well, and the mixture was incubated at 37° C. for 1 h. After washing, 100 μl of TMB substrate solution was added to each well for developing for 10 to 15 min in the dark, 100 μl of stop solution (2M H2SO4) was added to each well, the solution was measured with a microplate reader immediately after the reaction stopped, and the absorbance at 450 nm (OD450) was read.
(ELISA stands for enzyme-linked immunosorbent assay.)
Target sequence in this assay (chain, as listed by the source limits assumed): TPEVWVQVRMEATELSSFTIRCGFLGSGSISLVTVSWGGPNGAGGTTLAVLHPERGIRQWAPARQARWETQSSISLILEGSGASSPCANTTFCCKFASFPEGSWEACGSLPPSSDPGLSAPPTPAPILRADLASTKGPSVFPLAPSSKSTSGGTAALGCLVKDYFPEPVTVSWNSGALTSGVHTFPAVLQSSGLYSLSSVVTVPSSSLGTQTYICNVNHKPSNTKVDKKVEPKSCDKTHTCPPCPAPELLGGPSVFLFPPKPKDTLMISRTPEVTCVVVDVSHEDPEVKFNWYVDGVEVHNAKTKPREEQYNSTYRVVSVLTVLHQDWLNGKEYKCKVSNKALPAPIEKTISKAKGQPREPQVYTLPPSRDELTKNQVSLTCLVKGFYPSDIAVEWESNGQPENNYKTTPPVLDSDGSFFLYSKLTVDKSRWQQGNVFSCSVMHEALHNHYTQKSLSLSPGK

Assay [4] has as its target T3, recombinant Macaca fascicularis PVRIG-human IgG1 Fc fusion protein (Macaca fascicularis; human).
T3 construct: Prepared 'in a similar manner' to the human PVRIG fusion
Put plainly: ELISA, plate coated with Macaca fascicularis PVRIG-human IgG1 Fc at 1.0 µg/ml, HRP goat anti-mouse IgG, OD450. The method, then:
The activity of the murine antibody in binding to the Macaca fascicularis PVRIG was evaluated by an ELISA method. The experimental procedure was as follows:
The recombinant Macaca fascicularis PVRIG-human IgG1 Fc fusion protein was diluted to 1.0 μg/ml in 1×PBS (phosphate buffer), the dilution was placed in a 96-well ELISA plate overnight at 4° C. by 100 μl/well, the plate was washed 3 times with PBST (0.05% Tween20-PBS) and blocked with 1% BSA, and the mixture was incubated for 2 h at 37° C. The plate was washed 3 times with PBST, and the murine antibody (Antibody 4) diluted in multiple ratios were respectively added to set 11 concentrations, and the mixture was incubated at 37° C. for 1 h using mouse IgG1 as a negative control at 100 μl/well. The plate was washed 3 times with PBST, 100 μl of horseradish peroxidase (HRP)-labeled goat anti-mouse IgG antibody (available from BOSTER, 1:10,000 dilution) was added to each well, and the mixture was incubated at 37° C. for 1 h. After washing, 100 μl of TMB substrate solution was added to each well for developing for 10 to 15 min in the dark, 100 μl of stop solution (2M H2SO4) was added to each well, the solution was measured with a microplate reader immediately after the reaction stopped, and the absorbance at 450 nm (OD450) was read. […]

The target of assay [5] is T2, recombinant human PVRIG-human IgG1 Fc …. Put plainly: SPR (Biacore), human PVRIG-human IgG1 Fc on chip, antibody in flow, 1:1 model. As to the method: The binding kinetics and dissociation equilibrium constant (KD) of the antibodies of the present disclosure to human PVRIG were determined using the surface plasmon resonance (Biacore) assay. Briefly, a CMS chip was coated with human PVRIG-human IgG1 Fc fusion protein, and after being blocked, antibody solutions of different concentrations passed through the CMS chip at a fixed flow rate and bound to antigen for 2 min, followed by transfer to dissociation buffer for 6 min for determination of the dissociation rate. The kinetics were analyzed using a 1:1 binding model.
A general note: SPR reads the build-up and loss of mass on a sensor chip optically.

T3 sequence (chain, as listed by the source limits assumed): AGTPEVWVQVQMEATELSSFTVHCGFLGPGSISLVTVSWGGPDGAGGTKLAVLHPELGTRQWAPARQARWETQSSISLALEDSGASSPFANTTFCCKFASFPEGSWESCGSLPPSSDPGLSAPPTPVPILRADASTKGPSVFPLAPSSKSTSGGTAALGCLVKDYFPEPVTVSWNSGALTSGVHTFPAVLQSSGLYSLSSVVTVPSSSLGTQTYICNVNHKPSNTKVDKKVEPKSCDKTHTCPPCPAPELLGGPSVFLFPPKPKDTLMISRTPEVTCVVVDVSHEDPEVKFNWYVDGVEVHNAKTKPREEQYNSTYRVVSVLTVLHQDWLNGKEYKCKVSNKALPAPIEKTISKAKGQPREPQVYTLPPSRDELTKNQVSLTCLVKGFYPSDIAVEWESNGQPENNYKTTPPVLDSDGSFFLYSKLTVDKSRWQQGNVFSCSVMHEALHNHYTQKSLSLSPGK

B1: Antibody 4 (antibody, V domains shown)
VH: QVQLQQSGAELVKPGASVKISCKATGYTFSSFSIEWVKQRPGHGLAWIGEILPGSNSTNYNEKFKGKATFTADTSSNTAYMQLSSLTSEDSAVYYCSSYWFAYWGQGTLVTVSA
VL: DIVMTQSPSSLSVSAGEKVTMSCKSSQSLLNSGNQKNYLAWYQQKPGQPPKLLIYGASTRESGVPDRFTGSGSGTDFTLTISSVQAEDLAVYYCQNAHSYPPTFAAGTKLELK
notes: Murine monoclonal antibody from hybridoma ascites; Used AF647-labelled in several flow cytometry assays; also called murine antibody (Antibody 4); murine Antibody 4
The EC50 (read off the curve) is the midpoint of the concentration-response curve. By Kd is commonly meant the free concentration of one partner at which half of the binding sites on the other are occupied at equilibrium, for simple one-to-one binding. In general, koff refers to the first-order rate constant of dissociation. The term kon denotes the second-order rate constant of association. For the molecule B1, the “EC50 (read off the curve)” value in assay [1] is about 0.01 mg/L. Besides, the “IC50 (read off the curve)” value in assay [2] is about 3 mg/L. Further, the “EC50 (read off the curve)” value in assay [3] was about 0.02 mg/L. Besides, in assay [4], the 50% effective concentration (EC50 (read off the curve)) is about 0.04 mg/L. For the same molecule, in assay [5], the equilibrium dissociation constant (Kd) is at most 4.1 pM, the koff was at most 1e-06 s⁻¹ and the kon worked out at 244000 M⁻¹ s⁻¹.
